This note sets out measurements from the DeepSol protein solubility set.

The nature of the data set: soluble on expression in E. coli; label from the status in PepcDB or PDB records.
Consider “MKIGDVEVRDDVFNVKVKKHVLWEVVKWQLAKRRQGTHSTKTRGEVAYSGRKILPQKGTGNARHGERGVNIFVGGGVAHGPKPRDYEYPLPKRVRKLGLKMALSDKARNNAIIFVDNIDLGKKPKTKKAIEFLKNLGVEKEKVLVVIPEKADVLYKSFRNLPNVRVLLPEGLNVYDVLWANKLVIQKDCLDRIYKKVEA”, for which the “soluble on expression in E. coli” value is on record as “soluble”. On to “MKEVLKLADEKFVMSFSGGKDSILALNRMLKKGYKPVALLTTISEEHGKSWTHNLEYNMLKQVSSNIGLPLLVAECGVEGYEESFERALIKAKNMGATICAYGDIDIESHRKWDTDRCEAVGMKVDLPLWQESREDLVYEFIDSGFCSVVTKVNLKHLGEEFLGKKLTRELVEKIKNAGADPCGEHGEYHTFVVDGPIFKKPVEYEVKGTLIKDGYGYLEIK”, for which the “soluble on expression in E. coli” value is “not soluble”. As to “MGNASMTKTDIATRVHNHTWKLDPIVRSLIDTDFYKLLMLQMIWKLYPEVDATFSLINRTKTVRLAEEIDEMELREQLDHARTLRLSKKENIWLAGNTFYGRSQIFEPEFLSWLSSYQLPEYELFKRDGQYELNFHGRWMDTTLWEIPALSIINELRSRSAMRSLGYFTLDVLYARAKAKMWEKVERLRELPGLRISDFGTRRRHSFLWQRWCVEALKEGIGPAFTGTSNVLLAMDSDLEAVGTNAHELPMVVAALAQTNEELAAAPYQVLKDWNRLYGGNLLIVLPDAFGTAAFLRNAPEWVADWTGFRPDSAPPIEGGEKIIEWWRKMGRDPRTKMLIFSDGLDVDAIVDTYRHFEGRVRMSFGWGTNLTNDFAGCAPKTIASLKPISIVCKVSDANGRPAVKLSDNPQKATGDPAEVERYLKFFGEEDHKEQKVLVLEHHHHHH”, the “soluble on expression in E. coli” value is recorded as “not soluble”. To “MAKGQNAPIRRRTLTRDKVVDAAIEIIDEHGWEQLSMTSLSARLNVVTASLYNHVRNLDDIRGAVQVRTMTELGAHLREIAMGRTGPDGLRALVDAHRAWATQHPHRYQTLTTSPVDRDAFISAALDANTALRTMLASCGLPPEDTLDAAVSIFAAMHGFVMLVNTDFLGDELDLDSIYESVLRGALSSVGWPERTHTPS” belongs “not soluble”; to “MGCAQSTPVDQPARQQPQATQQKSVEPAVVKKPVEPARVEPKVEVPSTKPSEVPHVEKAQSINRGQPGDGSGPLQQPSPAMPGAKQGGTKERRAAAGSEAVRDQIRKLAVGGPQAKEEKEKIYEVSDSEDEELEDDPSERTTLSGDWYKPQEVTDAILEALKRNFVFKGIPQNHLVEVVGRMYGISFKSGAVVLQQGALPKQDDCMYYLQQGEAEVVISGGADASKNHGEERKVDGHTVRIPQKPGWLFGDVALLFHSPRTASVVAKTNITVWAMDRRTFLKFVMKHAQGARALRFLRKLPLLKGLSDNDLIRAASRMPQRMYEDGQPLIRIGERGDELFLIRYGKVRVFRPDGNGGRVEVAVLGRGQFVGERAVINDKLRSADCVAQGQVQVVVLKKREFMDLDNPLLAWMLDYDAVSAVIRSLPQFKGLKQEQMENILDRFDAREELMQGDTILNQGDMLEKLYVVKIGEIALFRNDERVEDPNFVHEIAGFSYFGETAITQTGKCPYTIRVASESLHLLSLPKRQVDSFMGRDTGLKNEEAVVAALKKSKFLANMTDPEFKELLKACEQTDYNPGEVIAVANSSVTNKIFLVKSGEVMVVAADLALPDTGEVDVRKLTGSERQRLLAGSIFNDKALNSPETASLEASLVAGTPCGIITFTTSDVERVMGGRAMSRSRNAMPGAAAAVEERKFPRVKFTELEFHRIIGTGQFGLVRVVRNIKTNEVYALKVMHKAPIVESKQIEHVINERKILEEACTHPFCVRLCGAYQDKASLYLLQEWVPGGELFHHLDVEGAFDEPTAMFYAANVLLALEFLHAKGIVYRDLKPENLLLDTQGYIKMADFGFAKYIGGDKTYTICGTPDYQAPEVIMRRGTTKAADYWALGVLIFEMLVGDPPFKSLTGDPWDTFRRTLSGRFYVPNFISDQAADLIFKLLQVNPDKRLGSDKRLGAEEIKRHRWFSRIDWRALEQKKLPSPFRPRVRNPLDTSNFDNFDNVDLEPPPVPADRAEKHSQQWELWDWIDDSK”, “not soluble”; to “MKAVDQAPKKKSHERKRKEKRVHTGNGTAKKHHKRKSRSKSKNKPKNGLSCCRKKKKKSKKSKSKVTKKQPKKKVIKPLAPVPNEQLGEVVLVKNVKLPETPQKPENDTPVKDGLKPPRTTNSVEKINLSKESFNLSNEKIASDNGTEEKMEKKNVDSPADIQDGLKGKSKQKSEEKVHQKAKDDAKRGDECNKFKISDEKLTKWKLVAQETLKDDANIAVNEFEKVSGYLPPHISKNHFVSNMDKNRFVDVICMDHSRVKLTDSSYIHANWVDLNSSKKAILTQLPLSHTASDFWQMIIDQKIKCVLLIMTDGEFNKFGGNSVFPQNQDFLKFEDRFIRVGEFKQVELGKGWNLKVLSVSNGTYKTFIHVHHYKNWPHGSIPSDVKQIWQVQSYLRKYTDGHPPVYMSMSGCGRAGTFALFETAHMSLHNEQPSLNMVKCLENVRNGRLHSVQNLSQFSVVYTLIAEHVLGNGIGKKDVEEQENSIDNILRQLTIQ”, “not soluble”. Next, “MFQRKTLQRRNLKGLNLNLHPDVGNNGQLQEKTETHQGQSRIEGHVMSNINAIQNNSNLFLRRGIKKKLTLDAFGDDQAISKPNTVVIQQPQNEPVLVLSSLSQSPCVSSSSSLSTPCIIDAYSNNFGLSPSSTNSTPSTIQGLSNIATPVENEHSISLPPLEESLSPAAADLKDTLSGTSNGNYIQLQDLVQLGKIGAGNSGTVVKALHVPDSKIVAKKTIPVEQNNSTIINQLVRELSIVKNVKPHENIITFYGAYYNQHINNEIIILMEYSDCGSLDKILSVYKRFVQRGTVSSKKTWFNELTISKIAYGVLNGLDHLYRQYKIIHRDIKPSNVLINSKGQIKLCDFGVSKKLINSIADTFVGTSTYMSPERIQGNVYSIKGDVWSLGLMIIELVTGEFPLGGHNDTPDGILDLLQRIVNEPSPRLPKDRIYSKEMTDFVNRCCIKNERERSSIHELLHHDLIMKYVSPSKDDKFRHWCRKIKSKIKEDKRIKREALDRAKLEKKQSERSTH”: “not soluble”; “MDTKPPIERSMYIELRTSLEMFRGDLVDLEALANASRDALDQLPFVPKGAKTDHDEAHPNPDPESALRSGRLDSLVCATASAAQSALVTCVKLIDWAYEYEPDDEDDDDDDMVPMDDIDDDDDDDDDDENGGSSGANGGGSNGSGRSGPPDDNGAGAASASVADEFANARPSRGGIVLDLPTRASTTDGPVDAR”: “not soluble”. “MRDEEPVRRLETIVEEERRVVVQGYVFDAEVSELKSGRTLLTMKITDYTNSILVKMFSRDKEDAELMSGVKKGMWVKVRGSVQNDTFVRDLVIIANDLNEIAANERQDTAPEGEKRVELHLHTPMSQMDAVTSVTKLIEQAKKWGHPAIAVTDHAVVQSFPEAYSAAKKHGMKVIYGLEANIVDDGVPIAYNETHRRLGSGSGPFHVTLLAQNETGLKNLFKLVSLSHIQYFHRVPRIPRSVLVKHRDGLLVGSGCDKGELFDNLIQKAPEEVEDIARFYDFLEVHPPDVYKPLIEMDYVKDEEMIKNIIRSIVALGEKLDIPVVATGNVHYLNPEDKIYRKILIHSQGGANPLNRHELPDVYFRTTNEMLDCFSFLGPEKAKEIVVDNTQKIASLIGDVKPIKDELYTPRIEGADEEIREMSYRRAKEIYGDPLPKLVEERLEKELKSIIGHGFAVIYLISHKLVKKSLDDGYLVGSRGSVGSSFVATMTEITEVNPLPPHYVCPNCKHSEFFNDGSVGSGFDLPDKNCPRCGTKYKKDGHDIPFETFLGFKGDKVPDIDLNFSGEYQPRAHNYTKVLFGEDNVYRAGTIGTVADKTAYGFVKAYASDHNLELRGAEIDRLAAGCTGVKRTTGQHPGGIIVVPDYMEIYDFTPIQYPADDTSSEWRTTHFDFHSIHDNLLKLDILGHDDPTVIRMLQDLSGIDPKTIPTDDPDVMGIFSSTEPLGVTPEQIMCNVGTIGIPEFGTRFVRQMLEETRPKTFSELVQISGLSHGTDVWLGNAQELIQNGTCTLSEVIGCRDDIMVYLIYRGLEPSLAFKIMESVRKGKGLTPEFEAEMRKHDVPEWYIDSCKKIKYMFPKAHAAAYVLMAVRIAYFKVHHPLLYYASYFTVRAEDFDLDAMIKGSAAIRKRIEEINAKGIQATAKEKSLLTVLEVALEMCERGFSFKNIDLYRSQATEFVIDGNSLIPPFNAIPGLGTNVAQAIVRAREEGEFLSKEDLQQRGKLSKTLLEYLESRGCLDSLPDHNQLSLFSGGHHHHHHHH”: the “soluble on expression in E. coli” value was “soluble”. “MSDYAESYVSDCEVDPEELKNQSLFDKPRGVPRWLGKPHNSVKERLHNSVKDRTFIQKTVSSSEPLSRNAMDRIEASLTDNLNLDVVYSLNKKNRWQDAKTTFLLAGAPENVNAEVVEKNGLAQFGFIYPEKSTFAVHSRVLNKENKQGEFEIRSAITSSARGQDYSNFLPNTREFSKKANAKVMTLRSEEVDEDSKRQPTVSYNIYKTHRSQDVVGKEMFKAKVVSKSRRHRQNKKVDMENYDDLDEEFEDDEDEVVDSHRPTGVFDLAAFKVRTQSKQAHPKNRKDSELSYDMVDYDELETGSEYSQQFNVQEYLNQEGYTFIQADVTFVKLTEPFEDQINQLRLEGDLRVKDLQKNQYLIDISKRCQPNGTTQDGETTAVIVLTHLKHKTYNMIFNSTIGADPIRRNGENLRKIVSSAPTVLEVITKISGDVAEDKQLISRIKTSEKFYGRPSTSVDWNDLSLQRATCPNQYDNATWANSEELSVVGGKLEWDDLVAMVKKENNLVTCYSSDDFCGFCNRKKKSFELFLIKSSSETKIKCTECLRNEFYREFIARRLPIDLQTETADEMEYLPIFIPLTLLNLYIRTVAETIYKDLGATGDFEKCPSCKSTIFFEEPGNENKTQNRSCPCGYSWCRDCKGVPHWPMNCENYAEWEKKWHLRYAMMNAQGTGTVTLLQFTCHCKTVYYCLLPTKRVNCPGCRESVNLETMNTMYRQFYYSYPPRYRKWEKQYHEENKDTDRHPYQPLAKVCWEIDKIPAIKASVIETCGAARDVRFDLKFRNRVIKQEQVLIKKSILTSEVLENILGTIPYLVENVTAWMHMSNHQDKNLKSILESMIADRKDLVYYLESENEIEIEKCVKILRAKIDSVVSIVEKNMKNC”: the “soluble on expression in E. coli” value is on record as “not soluble”. To “MGSSHHHHHHMDRYEIKGVDVASYQGDIDWRELEKQNMKFAFIKATEGSAFVDKYFSKNWTNANKTSMRVGAYHFFSFDSKGETQAEQFIRNVPKYKQALPPVIDVEFYANKKDNPPKREDVTKELSVMIEMLEKHYGKKVILYATQEAYDLYIKDAYPQCDIWIRSVLTKPSLSDERKWTFWQYTNRGKLSGYNGKEKYIDLNVFYGNEEEFENYGMKD” belongs “soluble”; to “MGSDKIHHHHHHMLSAMYLIDAFFSRQNNQFHLEQQSHCVNQIIEQWRYNGQIIGREIPQFVAEQKNQQGLAVRVTCPEQTSLLAEFNNQPVNDALQTAEKCGVSFESFHIVAEDLNSEITATETPAWQLLYTTYLQSCSPLQSGESLQPIPLYKQLKNIPHLAMDLVKWQENWQACDQLQMNGSVLEQQALVQISDTQSTLFKHGYHLTQEIERHSGIPTYYYLYRIGGKSCEAELQSRCPLCKRKWTLSHPLFDFLYFKCDHCRLVSNLSWHWQ”, “not soluble”; to “MQAINPNWNVPKNIHAFTTTREGGVSLAPYLSFNLGDHVGDNKSAVKTNRTLLVEKFGLPQTPIFLTQTHSTRVIQLPYSGQNLEADAVYTNVPNQVCVVMTADCLPVLFTTTSGNEVAATHAGWRGLCDGVLEETVKYFQAKPEDIIAWFGPAIGPKAFQVGIDVVEKFVVVDEKAKLAFQPDAIEEGKYLSNLYQIATQRLNNLGITQIYGGNHCTFNEKEKFFSYRRDNQTGRMASVIWFE”, “not soluble”. Next, “MQTSDLLKKVRRIEIKARGLSRQIFAGQYHSAFRGRGMAFSEVREYTVGDDVRDIDWNVTARYARPYVKVFEEERELTVMLMVDMSGSLSFGTEVETKRELTAEVAATLAFSAIQNNDKIGVLFFTDRIEKYVPPAKGKKHILYIIRELLEFRPQSRATDLSVPLSYLTRLVKKRCTAFLISDFQSEKDSYEKTLLMSARKHDIVAIRIFDRREADLPNVGLMRFRDAETGQTHWVDTADSSVRKAYADAYERRQVALAVLLKRCGVDTTEIRTGQDFVQQLLILFKKRS”: “not soluble”.
